The results in this text go back to doi:10.1101/2020.07.22.215871.

For this data set, the target named is T1, Tb927.11.16120-His (r16120) (Trypanosoma brucei, UniProt Q381H4 1-610).
T1 sequence: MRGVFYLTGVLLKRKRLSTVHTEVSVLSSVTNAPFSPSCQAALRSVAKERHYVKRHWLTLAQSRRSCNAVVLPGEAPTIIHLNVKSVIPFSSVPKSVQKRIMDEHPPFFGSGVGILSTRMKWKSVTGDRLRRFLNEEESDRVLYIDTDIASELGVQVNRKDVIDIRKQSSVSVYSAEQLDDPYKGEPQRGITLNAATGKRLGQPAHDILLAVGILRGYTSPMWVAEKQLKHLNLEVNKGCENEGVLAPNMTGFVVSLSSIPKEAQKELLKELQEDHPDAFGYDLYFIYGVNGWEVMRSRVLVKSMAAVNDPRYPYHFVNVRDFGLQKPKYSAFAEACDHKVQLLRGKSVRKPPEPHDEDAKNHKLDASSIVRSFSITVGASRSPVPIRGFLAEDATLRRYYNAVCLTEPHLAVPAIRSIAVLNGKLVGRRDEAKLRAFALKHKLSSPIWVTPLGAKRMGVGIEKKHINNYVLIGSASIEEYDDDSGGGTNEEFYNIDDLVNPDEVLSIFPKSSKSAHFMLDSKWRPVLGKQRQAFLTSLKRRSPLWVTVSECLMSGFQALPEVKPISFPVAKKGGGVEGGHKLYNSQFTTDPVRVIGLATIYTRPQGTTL
Briefly: EMSA.

B1: 73 bp conserved minicircle sequence (dsDNA)
DNA 1: GAAAAAACGGAAAATCTTATGGGCGTGCAAAAATACACATACACAAATCCCGTGCTTATTTTAGGCCATTTTT
DNA 2: AAAAATGGCCTAAAATAAGCACGGGATTTGTGTATGTGTATTTTTGCACGCCCATAAGATTTTCCGTTTTTTC
For the molecule B1, the binding result is “binds”.
